Experiments:
[1] = target: glycosylated 30mer MUC1 peptide; test: ELISA, 10 µg/ml antibody; reference is the non-glycosylated 30mer
[2] = target: TR5, non-glycosylated MUC1 peptide […]n with n=5; test: ELISA, 10 µg/ml antibody; reference is TR1 (SEQ ID NO: 72)
[3] = target: glycosylated 30mer MUC1 peptide; test: ELISA of Example 5.1; reference is the non-glycosylated 30mer

Chain of glycosylated 30mer MUC1 peptide (peptide, as listed by the source): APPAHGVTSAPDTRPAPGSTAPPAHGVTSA
Chain of TR5, non-glycosylated MUC1 peptide […]n with n=5 (peptide, as listed by the source): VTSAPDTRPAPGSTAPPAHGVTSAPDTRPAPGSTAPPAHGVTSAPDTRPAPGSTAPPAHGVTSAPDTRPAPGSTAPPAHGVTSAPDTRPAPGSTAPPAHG

Substance | factor (ratio of glycosylated/non-glycosylated peptide) [1] | factor (ratio of the signal with TR5 peptide to that with TR1 peptide) [2] | factor (glycosylated against non-glycosylated peptide) [3]
C595 (antibody) | < 1.2 | 1.1 | –
HMFG-1 (antibody) | < 1.2 | – | –
SM3 (antibody) | < 1.2 | 2.1 | 1.5
